One molecule from paper PMC3582033 (Cell, 2011) can be followed below.

The assay relates to HP1γ binding to H3 peptide containing K9me3 as the sole modification. As to the kind of experiment: TRIM33 competition with HP1γ for H3 peptide, K9me3 only. To be noted: 3-fold molar excess of TRIM33.

B1: TRIM33: Flag-tagged TRIM33 protein (protein)
chain: MAENKGGGEAESGGGGSGSAPVTAGAAGPTAQEAEPPLAAVLVEEEEEEGGRAGAEGGAAGPDDGGVAAASSSSAPAASVPAASVGSAVPGGAASTPAPAAAPAPAPAPAPAPAPAPAPAPAPGSSSGPPLGPPASLLDTCAVCQQSLQSRREAEPKLLPCLHSFCLRCLPEPERQLSVPIPGGSNGDVQQVGVIRCPVCRQECRQIDLVDNYFVKDTSEAPSSSDEKSEQVCTSCEDNASAVGFCVECGEWLCKTCIEAHQRVKFTKDHLIRKKEDVSESVGTSGQRPVFCPVHKQEQLKLFCETCDRLTCRDCQLLEHKEHRYQFLEEAFQNQKGAIENLLAKLLEKKNYVHFAATQVQNRIKEVNETNKRVEQEIKVAIFTLINEINKKGKSLLQQLENVTKERQMKLLQQQNDITGLSRQVKHVMNFTNWAIASGSSTALLYSKRLITFQLRHILKARCDPVPAANGAIRFHCDPTFWAKNVVNLGNLVIESKPAPGYTPNVVVGQVPPGTNHISKTPGQINLAQLRLQHMQQQVYAQKHQQLQQMRLQQPPAPIPTTTATTQQHPRQAAPQMLQQQPPRLISVQTMQRGNMNCGAFQAHQMRLAQNAARIPGIPRHSAPQYSMMQPHLQRQHSNPGHAGPFPVVSAHNPINPTSPTTATMANANRGPTSPSVTAIELIPSVTNPENLPSLPDIPPIQLEDAGSSSLDNLLSRYISGSHLPPQPTSTMNPSPGPSALSPGSSGLSNSHTPVRPPSTSSTGSRGSCGSSGRTAEKSAHSFKSDQVKVKQEPGTEEEICSFSGAVKQEKTEDGRRSACMLSSPESSLTPPLSTNLHLESELDTLTGLENHVKTEPTDISESCKQSGLSNLVNGKSPIRNLMHRSARIGGDGNSKDDDPNEDWCAVCQNGGDLLCCEKCPKVFHLTCHVPTLLSFPSGDWICTFCRDIGKPEVEYDCDNMQHSKKGKTAQGLSPVDQRKCERLLLYLYCHELSIEFQEPVPVSIPNYYKIIKKPMDLSTVKKKLQKKHSQHYQIPDDFVADVRLIFKNCERFNEMMKVVQVYADTQEINLKGDSEVAKAGKAVALYFEDKLSEIYSDRTFTPLPEFEQDEDDGEVTEDSDEDFIQPRRKRLKSDERPVHIK
B1: the “competition with HP1γ” value is on record as “ineffective at competing with HP1γ”.
